Experimental data published in patent publication US9176064B2, “Bisubstrate fluorescent probes for protein kinase CK2” (University of Tartu, priority 2012, dated 2015).
Where a SMILES comes first, the peptide text is derived from it. [ ]: non-standard residue; d: D form. The star is where a group is joined. X1 = O=C(CCCCCCCn1cnc2c(Br)c(Br)c(Br)c(Br)c21)*

Legend:
Experiment in all cases: Kinase panel residual activity
Format in all cases: biochemical
Details in all cases: compound at 1 micromolar
ERK5 = ERK5 (Homo sapiens, UniProt Q13164)
GSK3b = GSK3b (Homo sapiens, UniProt P49841)
EPH-B4 = target: T1, EPH-B4 (Homo sapiens, UniProt P54760)
T1 sequence (P54760 16-987): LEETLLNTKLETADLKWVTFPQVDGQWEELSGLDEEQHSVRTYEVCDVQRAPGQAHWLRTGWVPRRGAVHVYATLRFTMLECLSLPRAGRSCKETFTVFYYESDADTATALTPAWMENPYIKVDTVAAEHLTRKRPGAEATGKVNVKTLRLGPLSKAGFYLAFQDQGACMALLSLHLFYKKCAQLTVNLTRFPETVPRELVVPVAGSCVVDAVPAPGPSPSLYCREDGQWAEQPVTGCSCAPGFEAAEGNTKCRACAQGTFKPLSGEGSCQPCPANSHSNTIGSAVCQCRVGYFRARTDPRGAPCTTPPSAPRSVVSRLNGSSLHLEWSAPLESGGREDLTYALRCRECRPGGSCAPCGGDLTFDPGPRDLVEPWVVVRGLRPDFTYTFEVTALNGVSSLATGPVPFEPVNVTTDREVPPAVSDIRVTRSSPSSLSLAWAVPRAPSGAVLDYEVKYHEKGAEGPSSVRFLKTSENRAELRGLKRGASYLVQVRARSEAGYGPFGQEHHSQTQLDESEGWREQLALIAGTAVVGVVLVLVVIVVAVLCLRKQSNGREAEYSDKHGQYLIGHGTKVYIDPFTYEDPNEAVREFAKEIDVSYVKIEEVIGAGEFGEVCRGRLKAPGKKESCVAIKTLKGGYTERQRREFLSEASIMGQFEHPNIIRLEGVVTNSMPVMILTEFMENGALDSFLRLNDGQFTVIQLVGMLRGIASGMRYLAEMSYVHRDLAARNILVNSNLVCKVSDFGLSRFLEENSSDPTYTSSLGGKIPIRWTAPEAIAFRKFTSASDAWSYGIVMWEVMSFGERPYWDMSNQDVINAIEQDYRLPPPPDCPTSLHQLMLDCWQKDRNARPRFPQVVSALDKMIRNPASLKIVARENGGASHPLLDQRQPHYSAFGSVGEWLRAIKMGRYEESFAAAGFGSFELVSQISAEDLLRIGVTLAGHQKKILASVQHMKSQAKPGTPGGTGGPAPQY

NEK2a = target: T2, NEK2a (Homo sapiens, UniProt P51955)
T2 sequence (P51955 1-445): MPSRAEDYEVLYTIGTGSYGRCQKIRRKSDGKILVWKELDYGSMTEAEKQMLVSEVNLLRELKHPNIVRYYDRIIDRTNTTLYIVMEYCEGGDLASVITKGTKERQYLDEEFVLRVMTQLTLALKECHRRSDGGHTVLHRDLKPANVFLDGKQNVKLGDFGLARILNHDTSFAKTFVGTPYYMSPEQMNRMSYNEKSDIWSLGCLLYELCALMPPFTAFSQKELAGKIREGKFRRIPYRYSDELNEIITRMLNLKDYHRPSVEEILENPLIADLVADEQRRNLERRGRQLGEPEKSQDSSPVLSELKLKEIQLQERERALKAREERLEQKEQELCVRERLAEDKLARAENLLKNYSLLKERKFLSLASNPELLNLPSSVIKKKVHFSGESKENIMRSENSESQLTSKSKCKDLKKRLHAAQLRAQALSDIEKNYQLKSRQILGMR

TTK = target: T3, TTK (Homo sapiens, UniProt P33981)
T3 sequence (P33981 1-857): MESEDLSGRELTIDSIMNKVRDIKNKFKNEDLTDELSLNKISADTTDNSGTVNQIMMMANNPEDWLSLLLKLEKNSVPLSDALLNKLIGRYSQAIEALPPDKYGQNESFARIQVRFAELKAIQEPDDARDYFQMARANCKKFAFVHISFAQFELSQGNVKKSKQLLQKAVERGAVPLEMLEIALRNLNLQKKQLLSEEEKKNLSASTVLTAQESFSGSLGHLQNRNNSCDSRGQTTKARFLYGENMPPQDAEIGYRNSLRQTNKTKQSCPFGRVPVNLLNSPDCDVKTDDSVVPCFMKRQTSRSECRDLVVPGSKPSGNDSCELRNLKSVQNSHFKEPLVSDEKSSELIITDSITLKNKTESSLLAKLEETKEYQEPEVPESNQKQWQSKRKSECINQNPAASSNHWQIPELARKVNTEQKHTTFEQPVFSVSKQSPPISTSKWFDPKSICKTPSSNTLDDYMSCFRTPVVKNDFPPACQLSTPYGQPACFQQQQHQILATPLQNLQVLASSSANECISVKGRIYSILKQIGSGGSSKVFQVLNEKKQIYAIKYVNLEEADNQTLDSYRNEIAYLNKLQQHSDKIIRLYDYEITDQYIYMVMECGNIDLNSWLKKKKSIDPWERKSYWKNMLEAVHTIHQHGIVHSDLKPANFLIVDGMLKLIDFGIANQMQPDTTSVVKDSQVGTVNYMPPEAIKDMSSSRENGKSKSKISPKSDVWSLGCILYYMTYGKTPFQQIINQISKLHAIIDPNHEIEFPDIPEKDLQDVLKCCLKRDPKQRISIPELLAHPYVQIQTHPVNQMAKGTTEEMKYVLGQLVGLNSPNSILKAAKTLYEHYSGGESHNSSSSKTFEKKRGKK

CDK9-Cyclin T1 = CDK9-Cyclin T1 (Homo sapiens, UniProt P50750)
TTBK1 = TTBK1 (Homo sapiens, UniProt Q5TCY1)
TTBK1, sequence (Q5TCY1 whole entry, species assumed): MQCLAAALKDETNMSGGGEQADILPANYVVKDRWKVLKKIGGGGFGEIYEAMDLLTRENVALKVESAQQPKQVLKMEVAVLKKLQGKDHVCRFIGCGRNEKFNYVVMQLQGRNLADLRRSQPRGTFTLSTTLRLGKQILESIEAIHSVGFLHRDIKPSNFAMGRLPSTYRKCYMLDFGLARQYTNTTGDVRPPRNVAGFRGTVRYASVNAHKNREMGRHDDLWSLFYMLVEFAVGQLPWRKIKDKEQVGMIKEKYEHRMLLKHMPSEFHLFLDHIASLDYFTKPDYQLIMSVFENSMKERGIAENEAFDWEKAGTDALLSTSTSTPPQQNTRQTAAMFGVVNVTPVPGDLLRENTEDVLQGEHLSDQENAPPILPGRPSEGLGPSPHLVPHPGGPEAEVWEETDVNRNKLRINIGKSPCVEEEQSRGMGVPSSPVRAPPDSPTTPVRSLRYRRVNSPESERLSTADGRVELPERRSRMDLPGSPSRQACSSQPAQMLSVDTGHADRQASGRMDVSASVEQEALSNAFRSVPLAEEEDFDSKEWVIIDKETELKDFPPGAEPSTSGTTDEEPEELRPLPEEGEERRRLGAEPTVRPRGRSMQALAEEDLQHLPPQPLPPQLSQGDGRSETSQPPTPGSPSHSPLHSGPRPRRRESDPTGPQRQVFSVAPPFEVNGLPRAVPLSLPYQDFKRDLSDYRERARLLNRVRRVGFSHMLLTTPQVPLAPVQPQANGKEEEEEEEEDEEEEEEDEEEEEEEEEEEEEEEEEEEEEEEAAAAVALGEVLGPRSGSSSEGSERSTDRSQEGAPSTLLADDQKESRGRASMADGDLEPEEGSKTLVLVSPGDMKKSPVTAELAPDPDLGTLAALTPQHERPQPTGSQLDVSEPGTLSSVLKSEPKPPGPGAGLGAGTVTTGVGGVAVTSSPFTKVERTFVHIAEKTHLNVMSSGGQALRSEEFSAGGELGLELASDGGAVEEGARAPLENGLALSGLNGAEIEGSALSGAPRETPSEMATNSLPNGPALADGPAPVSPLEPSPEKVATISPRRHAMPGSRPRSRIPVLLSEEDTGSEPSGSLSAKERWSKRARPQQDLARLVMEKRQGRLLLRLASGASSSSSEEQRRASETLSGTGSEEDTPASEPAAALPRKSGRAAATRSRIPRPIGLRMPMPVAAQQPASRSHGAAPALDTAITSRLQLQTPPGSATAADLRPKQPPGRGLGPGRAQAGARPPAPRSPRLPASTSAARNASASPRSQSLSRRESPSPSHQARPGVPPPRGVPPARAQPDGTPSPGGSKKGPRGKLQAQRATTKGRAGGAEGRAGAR

CDK9-Cyclin T1, sequence (P50750 whole entry): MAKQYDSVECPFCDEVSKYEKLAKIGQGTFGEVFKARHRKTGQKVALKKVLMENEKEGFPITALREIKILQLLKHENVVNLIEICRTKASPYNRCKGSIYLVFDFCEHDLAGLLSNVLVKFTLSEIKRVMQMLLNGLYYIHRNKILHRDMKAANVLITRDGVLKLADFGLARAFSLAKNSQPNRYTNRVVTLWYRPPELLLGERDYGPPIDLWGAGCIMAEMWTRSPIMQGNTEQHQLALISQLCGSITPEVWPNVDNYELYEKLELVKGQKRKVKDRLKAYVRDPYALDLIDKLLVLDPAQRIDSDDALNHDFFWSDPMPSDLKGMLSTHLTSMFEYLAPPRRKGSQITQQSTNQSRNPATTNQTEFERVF
CDK9-Cyclin T1, sequence (O60563 whole entry partner): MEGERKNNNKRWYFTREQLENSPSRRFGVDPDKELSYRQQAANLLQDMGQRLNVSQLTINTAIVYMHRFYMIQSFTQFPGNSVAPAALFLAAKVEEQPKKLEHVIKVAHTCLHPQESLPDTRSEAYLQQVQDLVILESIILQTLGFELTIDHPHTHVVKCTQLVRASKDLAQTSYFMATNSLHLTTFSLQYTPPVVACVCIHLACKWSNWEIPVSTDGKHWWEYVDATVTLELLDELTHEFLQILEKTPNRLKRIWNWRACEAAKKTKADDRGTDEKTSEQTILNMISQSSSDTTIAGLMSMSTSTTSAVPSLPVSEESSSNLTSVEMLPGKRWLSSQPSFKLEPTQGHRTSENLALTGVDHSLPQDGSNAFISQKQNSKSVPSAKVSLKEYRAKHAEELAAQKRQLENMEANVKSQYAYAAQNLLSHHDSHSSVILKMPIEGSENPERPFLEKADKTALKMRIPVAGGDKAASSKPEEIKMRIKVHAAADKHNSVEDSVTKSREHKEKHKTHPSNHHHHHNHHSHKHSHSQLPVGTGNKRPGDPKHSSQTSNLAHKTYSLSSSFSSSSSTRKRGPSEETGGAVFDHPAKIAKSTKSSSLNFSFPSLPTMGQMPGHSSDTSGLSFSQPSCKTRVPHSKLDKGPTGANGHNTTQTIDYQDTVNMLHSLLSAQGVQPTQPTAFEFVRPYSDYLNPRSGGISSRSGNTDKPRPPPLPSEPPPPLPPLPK
ERK5, sequence (Q13164 whole entry, species assumed): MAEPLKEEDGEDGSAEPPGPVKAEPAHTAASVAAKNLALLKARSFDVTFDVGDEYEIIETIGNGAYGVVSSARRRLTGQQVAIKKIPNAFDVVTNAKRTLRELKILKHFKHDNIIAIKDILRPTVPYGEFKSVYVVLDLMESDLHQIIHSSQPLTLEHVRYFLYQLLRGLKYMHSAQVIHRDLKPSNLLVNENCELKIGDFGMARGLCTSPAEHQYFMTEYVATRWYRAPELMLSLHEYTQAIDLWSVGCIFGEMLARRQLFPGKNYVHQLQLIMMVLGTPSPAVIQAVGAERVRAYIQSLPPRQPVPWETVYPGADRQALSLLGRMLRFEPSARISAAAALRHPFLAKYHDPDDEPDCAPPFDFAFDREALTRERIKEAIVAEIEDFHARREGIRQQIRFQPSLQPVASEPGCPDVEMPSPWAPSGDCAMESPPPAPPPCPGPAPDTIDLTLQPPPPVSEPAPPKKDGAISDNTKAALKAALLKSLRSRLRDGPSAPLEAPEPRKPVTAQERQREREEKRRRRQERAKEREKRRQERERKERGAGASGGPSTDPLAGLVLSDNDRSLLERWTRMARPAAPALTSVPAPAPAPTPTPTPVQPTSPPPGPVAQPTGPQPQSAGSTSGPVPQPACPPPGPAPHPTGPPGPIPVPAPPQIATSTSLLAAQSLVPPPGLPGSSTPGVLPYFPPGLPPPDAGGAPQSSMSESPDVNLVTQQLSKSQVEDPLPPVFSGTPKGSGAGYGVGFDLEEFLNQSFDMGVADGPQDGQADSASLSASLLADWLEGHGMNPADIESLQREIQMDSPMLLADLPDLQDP
GSK3b, sequence (P49841 whole entry, species assumed): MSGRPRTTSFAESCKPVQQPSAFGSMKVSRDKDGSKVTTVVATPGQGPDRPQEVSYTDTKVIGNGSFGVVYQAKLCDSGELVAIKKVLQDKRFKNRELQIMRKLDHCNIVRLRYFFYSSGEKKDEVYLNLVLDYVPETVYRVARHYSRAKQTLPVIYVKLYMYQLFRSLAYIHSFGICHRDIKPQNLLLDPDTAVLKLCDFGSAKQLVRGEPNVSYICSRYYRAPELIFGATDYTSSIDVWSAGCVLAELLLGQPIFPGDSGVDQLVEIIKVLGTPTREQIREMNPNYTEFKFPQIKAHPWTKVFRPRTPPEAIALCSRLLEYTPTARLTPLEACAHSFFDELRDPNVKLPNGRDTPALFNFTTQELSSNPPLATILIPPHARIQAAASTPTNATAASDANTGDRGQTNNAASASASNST

## NCCCC[C@H](NC(=O)[C@H](CC(=O)O)NC(=O)[C@H](CC(=O)O)NC(=O)[C@H](CC(=O)O)NC(=O)[C@H](CC(=O)O)NC(=O)[C@H](CC(=O)O)NC(=O)[C@@H](CC(=O)O)NC(=O)CCCCCCCn1cnc2c(Br)c(Br)c(Br)c(Br)c21)C(=O)O [TBBI-OcA-(D-Asp)-(L-Asp)5-(L-Lys)-OH] (X1-[dD]DDDDDK-OH)
ERK5
  remaining activity at 1 µM: 98%
GSK3b
  remaining activity at 1 µM: 46%
EPH-B4
  remaining activity at 1 µM: 104%
NEK2a
  remaining activity at 1 µM: 94%
TTK
  remaining activity at 1 µM: 52%
CDK9-Cyclin T1
  remaining activity at 1 µM: 65%
TTBK1
  remaining activity at 1 µM: 90%
